For 50 variants, abundance fitness results are on record in the Human Domainome abundance scans (Beltran et al. 2025).

B1: GA-binding protein alpha chain, residues 172 to 250; numbered along this chain, Q06546 (parent)
chain: GYRKEQERLGIPYDPIQWSTDQVLHWVVWVMKEFSMTDIDLTTLNISGRELCSLNQEDFFQRVPRGEILWSHLELLRKY
B2: Ankyrin repeat and SOCS box protein 14, residues 532 to 572; numbered along this chain, A6NK59 (parent)
chain: RSLKHLCRLKIRKCMGRLHLRCPVFMSFLPLPNRLKAYVLY

± gives the uncertainty stated by the source.

The variants in one data set derive from B1. Briefly: abundance fitness (aPCA) (normalised: wild type 0, dead -1); higher = more abundant; growth selection in yeast, the domain comes from the species named. As to conditions: Homo sapiens.
Turning to GYRKEQERLGIPYDPIQWSTDQVLHWVVWVMKEFSMTDIDLTTLNISGRELCSLNQEDFFQRVPRGEILWSHLELLRKD [Y79D], the abundance fitness stood at 0.06 ± 0.15.
GYRKEQERLGIPYDPIQWSTDQVLHWVVWVMKEFSMTDIDLTTLNISGRELCSLNQEDFFQRVPRGEILWSHLELLRKW [Y79W]: the abundance fitness is -0.09 ± 0.055.
Consider GYRKEQERLGIPYDPIQWSTDQVLHWVVWVMKEFSMTDIDLTTLNISGRELCSLNQEDFFQRVPRGEILWSHLELLRKI [Y79I], for which the abundance fitness is -0.09 ± 0.11.
Still for that read-out and setting: in the case of GYRKEQERLGIPYDPIQWSTDQVLHWVVWVMKEFSMTDIDLTTLNISGRELCSLNQEDFFQRVPRGEILWSHLELLRKA [Y79A] it was -0.021 ± 0.084.
Same read-out and setting: in the case of GYRKEQERLGIPYDPIQWSTDQVLHWVVWVMKEFSMTDIDLTTLNISGRELCSLNQEDFFQRVPRGEILWSHLELLRKC [Y79C] it was -0.061 ± 0.063; in that of GYRKEQERLGIPYDPIQWSTDQVLHWVVWVMKEFSMTDIDLTTLNISGRELCSLNQEDFFQRVPRGEILWSHLELLRKN [Y79N], 0.107 ± 0.1; in that of GYRKEQERLGIPYDPIQWSTDQVLHWVVWVMKEFSMTDIDLTTLNISGRELCSLNQEDFFQRVPRGEILWSHLELLRKP [Y79P], 0.009 ± 0.042.
On the same count and under the same terms, the value for GYRKEQERLGIPYDPIQWSTDQVLHWVVWVMKEFSMTDIDLTTLNISGRELCSLNQEDFFQRVPRGEILWSHLELLRKG [Y79G] was 0.031 ± 0.067; that for GYRKEQERLGIPYDPIQWSTDQVLHWVVWVMKEFSMTDIDLTTLNISGRELCSLNQEDFFQRVPRGEILWSHLELLRKS [Y79S] was 0.038 ± 0.04.
As to GYRKEQERLGIPYDPIQWSTDQVLHWVVWVMKEFSMTDIDLTTLNISGRELCSLNQEDFFQRVPRGEILWSHLELLRKK [Y79K], the abundance fitness was 0.146 ± 0.13.
Same read-out and setting: the value for GYRKEQERLGIPYDPIQWSTDQVLHWVVWVMKEFSMTDIDLTTLNISGRELCSLNQEDFFQRVPRGEILWSHLELLRKF [Y79F] was 0.062 ± 0.095.
For the variant GYRKEQERLGIPYDPIQWSTDQVLHWVVWVMKEFSMTDIDLTTLNISGRELCSLNQEDFFQRVPRGEILWSHLELLRKH [Y79H], the abundance fitness worked out at 0.002 ± 0.078.
The same measure, in the same setting: the value for GYRKEQERLGIPYDPIQWSTDQVLHWVVWVMKEFSMTDIDLTTLNISGRELCSLNQEDFFQRVPRGEILWSHLELLRKQ [Y79Q] was 0.006 ± 0.097.
Same read-out and setting: in the case of GYRKEQERLGIPYDPIQWSTDQVLHWVVWVMKEFSMTDIDLTTLNISGRELCSLNQEDFFQRVPRGEILWSHLELLRKL [Y79L] it was -0.032 ± 0.052; in that of GYRKEQERLGIPYDPIQWSTDQVLHWVVWVMKEFSMTDIDLTTLNISGRELCSLNQEDFFQRVPRGEILWSHLELLRKT [Y79T], -0.148 ± 0.084.
On to GYRKEQERLGIPYDPIQWSTDQVLHWVVWVMKEFSMTDIDLTTLNISGRELCSLNQEDFFQRVPRGEILWSHLELLRKR [Y79R], for which the abundance fitness was -0.054 ± 0.049.
The same measure, in the same setting: in the case of GYRKEQERLGIPYDPIQWSTDQVLHWVVWVMKEFSMTDIDLTTLNISGRELCSLNQEDFFQRVPRGEILWSHLELLRKE [Y79E] it was 0.01 ± 0.11; in that of GYRKEQERLGIPYDPIQWSTDQVLHWVVWVMKEFSMTDIDLTTLNISGRELCSLNQEDFFQRVPRGEILWSHLELLRKV [Y79V], -0.096 ± 0.065.
On the same count and under the same terms, in the case of GYRKEQERLGIPYDPIQWSTDQVLHWVVWVMKEFSMTDIDLTTLNISGRELCSLNQEDFFQRVPRGEILWSHLELLRKM [Y79M] it was -0.299 ± 0.15; in that of GYRKEQERLGIPYDPIQWSTDQVLHWVVWVMKEFSMTDIDLTTLNISGRELCSLNQEDFFQRVPRGEILWSHLELLRNY [K78N], 0.096 ± 0.085.
The same measure, in the same setting: in the case of GYRKEQERLGIPYDPIQWSTDQVLHWVVWVMKEFSMTDIDLTTLNISGRELCSLNQEDFFQRVPRGEILWSHLELLRWY [K78W] it was -0.23 ± 0.047.
For GYRKEQERLGIPYDPIQWSTDQVLHWVVWVMKEFSMTDIDLTTLNISGRELCSLNQEDFFQRVPRGEILWSHLELLRYY [K78Y], the abundance fitness is -0.208 ± 0.085.
Regarding GYRKEQERLGIPYDPIQWSTDQVLHWVVWVMKEFSMTDIDLTTLNISGRELCSLNQEDFFQRVPRGEILWSHLELLRRY [K78R], the abundance fitness worked out at 0.003 ± 0.033.
Same read-out and setting: in the case of GYRKEQERLGIPYDPIQWSTDQVLHWVVWVMKEFSMTDIDLTTLNISGRELCSLNQEDFFQRVPRGEILWSHLELLRVY [K78V] it was -0.078 ± 0.03.
As to GYRKEQERLGIPYDPIQWSTDQVLHWVVWVMKEFSMTDIDLTTLNISGRELCSLNQEDFFQRVPRGEILWSHLELLRMY [K78M], the abundance fitness was -0.071 ± 0.072.
The same measure, in the same setting: the value for GYRKEQERLGIPYDPIQWSTDQVLHWVVWVMKEFSMTDIDLTTLNISGRELCSLNQEDFFQRVPRGEILWSHLELLRSY [K78S] was -0.045 ± 0.046.
Still for that read-out and setting: the value for GYRKEQERLGIPYDPIQWSTDQVLHWVVWVMKEFSMTDIDLTTLNISGRELCSLNQEDFFQRVPRGEILWSHLELLRPY [K78P] was -0.195 ± 0.066; that for GYRKEQERLGIPYDPIQWSTDQVLHWVVWVMKEFSMTDIDLTTLNISGRELCSLNQEDFFQRVPRGEILWSHLELLRQY [K78Q] was -0.059 ± 0.087.

Variants of B2 are the subject of another data set. The description is as above. As to conditions: Homo sapiens.
For RSLKHACRLKIRKCMGRLHLRCPVFMSFLPLPNRLKAYVLY [L6A], the abundance fitness amounted to 0.122 ± 0.052.
RSLKHGCRLKIRKCMGRLHLRCPVFMSFLPLPNRLKAYVLY [L6G]: the abundance fitness was -0.297 ± 0.047.
On the same count and under the same terms, in the case of RSLKHCCRLKIRKCMGRLHLRCPVFMSFLPLPNRLKAYVLY [L6C] it was 0.204 ± 0.13.
The same measure, in the same setting: the value for RSLKHECRLKIRKCMGRLHLRCPVFMSFLPLPNRLKAYVLY [L6E] was 0.166 ± 0.045; that for RSLKHDCRLKIRKCMGRLHLRCPVFMSFLPLPNRLKAYVLY [L6D] was 0.192 ± 0.1.
Still for that read-out and setting: in the case of RSLKQLCRLKIRKCMGRLHLRCPVFMSFLPLPNRLKAYVLY [H5Q] it was -0.296 ± 0.17; in that of RSLKLLCRLKIRKCMGRLHLRCPVFMSFLPLPNRLKAYVLY [H5L], -0.184 ± 0.052; in that of RSLKGLCRLKIRKCMGRLHLRCPVFMSFLPLPNRLKAYVLY [H5G], -0.37 ± 0.048.
Take RSLKALCRLKIRKCMGRLHLRCPVFMSFLPLPNRLKAYVLY [H5A]: the abundance fitness was -0.137 ± 0.052.
Still for that read-out and setting: in the case of RSLKDLCRLKIRKCMGRLHLRCPVFMSFLPLPNRLKAYVLY [H5D] it was -0.293 ± 0.13.
Still for that read-out and setting: in the case of RSLKNLCRLKIRKCMGRLHLRCPVFMSFLPLPNRLKAYVLY [H5N] it was -0.105 ± 0.24.
On the same count and under the same terms, in the case of RSLKSLCRLKIRKCMGRLHLRCPVFMSFLPLPNRLKAYVLY [H5S] it was 0.069 ± 0.089; in that of RSLKMLCRLKIRKCMGRLHLRCPVFMSFLPLPNRLKAYVLY [H5M], 0.057 ± 0.1.
For the variant RSLKELCRLKIRKCMGRLHLRCPVFMSFLPLPNRLKAYVLY [H5E], the abundance fitness is -0.018 ± 0.055.
As for RSLKPLCRLKIRKCMGRLHLRCPVFMSFLPLPNRLKAYVLY [H5P], the abundance fitness is -0.6 ± 0.15.
On the same count and under the same terms, the value for RSLKCLCRLKIRKCMGRLHLRCPVFMSFLPLPNRLKAYVLY [H5C] was -0.043 ± 0.14.
Still for that read-out and setting: the value for RSLKVLCRLKIRKCMGRLHLRCPVFMSFLPLPNRLKAYVLY [H5V] was -0.94 ± 0.14.
Still for that read-out and setting: in the case of RSLKRLCRLKIRKCMGRLHLRCPVFMSFLPLPNRLKAYVLY [H5R] it was -0.285 ± 0.054; in that of RWLKHLCRLKIRKCMGRLHLRCPVFMSFLPLPNRLKAYVLY [S2W], -0.097 ± 0.064.
Regarding RKLKHLCRLKIRKCMGRLHLRCPVFMSFLPLPNRLKAYVLY [S2K], the abundance fitness is -0.053 ± 0.083.
On the same count and under the same terms, the value for RRLKHLCRLKIRKCMGRLHLRCPVFMSFLPLPNRLKAYVLY [S2R] was -0.153 ± 0.063; that for RPLKHLCRLKIRKCMGRLHLRCPVFMSFLPLPNRLKAYVLY [S2P] was -0.521 ± 0.27.
